In series [1] the test system is EGFR^988-998 peptide, DADEpYLIPQQG. Description: Kinetic constants for PTP1B-catalyzed hydrolysis of pTyr-containing EGFR988-998 peptide. The format is biochemical. The following applies: EGFR988-998 peptide as substrate. The method in brief:
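PTP1B catalytic domain (residues 1–321), wild-type or mutant, expressed in E. coli. Continuous assay at 25° C., pH 7.0, in 50 mM 3,3-dimethylglutarate with 1 mM EDTA (ionic strength 0.15 M). Dephosphorylation followed by absorbance increase at 282 nm or fluorescence at 305 nm to obtain kcat and Km.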

Series [2] has as its target T1, Ac-Asp-Ala-Asp-Glu-F2Pmp-Leu-NH2 (Homo sapiens, UniProt P18031, C215S).
T1 construct: The catalytic domain of PTP1B (residues 1 to 321) was used for in vitro study; made in house; host or cells: E. coli (pT7-7 plasmids)
T1 sequence (P18031 1-321 C215S): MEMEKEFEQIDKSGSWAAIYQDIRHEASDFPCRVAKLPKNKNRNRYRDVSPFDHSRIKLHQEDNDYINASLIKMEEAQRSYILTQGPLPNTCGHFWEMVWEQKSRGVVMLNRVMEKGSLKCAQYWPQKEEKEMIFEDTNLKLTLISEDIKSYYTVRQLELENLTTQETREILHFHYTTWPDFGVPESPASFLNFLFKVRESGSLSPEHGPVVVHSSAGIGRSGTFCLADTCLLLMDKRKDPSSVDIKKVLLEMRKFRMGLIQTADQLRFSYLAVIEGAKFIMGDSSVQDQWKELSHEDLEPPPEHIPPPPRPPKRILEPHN
Description: Isothermal titration calorimetry, binding of PTP1B and mutants to F2Pmp peptide. The conditions noted are these: lower temperature (15° C.). On the procedure: FIG. 3 portrays calorimetric isothermal titration for the reaction of peptide Ac-Asp-Ala-Asp-Glu-F2Pmp-Leu-NH2 with PTP1B/D181A/Q262A. The upper graph depicts raw data for thirty 8-μl injections of the peptide (0.5 mM stock) into the isothermal cell containing 32 μM PTP1B/D181A/Q262A, at 4-min intervals and 25° C. Both the protein and the peptide were in 50 mM 3,3-dimethylglutarate buffer (I=0.15 M, pH 7.0) containing 1 mM DTT. The lower graph depicts an integration curve showing experimental points that were obtained by integration of the above peaks as plotted against the molar ratio of the peptide to PTP1B/D181A/Q262A within the reaction cell. The solid line corresponds to the best fit to the data according to the nonlinear, least-squares regression algorithm, ORIGIN (29).
All isothermal titration calorimetry experiments were performed using an MCS Isothermal Titration Calorimetry System from Microcal Inc. (Northampton, Mass.). […] The ionic strength of the buffer was adjusted to 0.15 M by addition of NaCl. Protein concentration in the calorimeter cell was 27-85 μM, while the ligand concentration in the syringe was 0.37-1 mM.
The PTP1B samples used in the isothermal titration calorimetry experiments were dialyzed completely against buffer. High-concentration stock solutions were prepared for ligands with distilled water, and adjusted to pH 7.0. Stock was diluted at least 26-fold with 50 mM 3,3-dimethylglutarate buffer before titration. Protein dilution during titration was determined by titration of buffer into the protein solution. […] The heat of ligand dilution was corrected by subtracting the average heat of injection after saturation.
The binding data were analyzed using ORIGIN software (29). Binding constant, K, and enthalpy change, ΔH, were used to calculate free energy change, ΔG, and entropy change, ΔS, according to equation [1]: −RTLnK=ΔG=ΔH−TΔS [1] where R is the gas constant and T is the absolute temperature.
(In ITC the heat of successive injections is recorded.)

Series [3] deals with Ac-Asp-Ala-Asp-Glu-F2Pmp-Leu-NH2. The following applies: cited from earlier work.

B1: C215S: existing PTP1B substrate-trapping mutant, active site Cys215 replaced by Ser (protein, UniProt P18031 1-435, looked up, variant C215S)
Tyrosine-protein phosphatase …: MEMEKEFEQIDKSGSWAAIYQDIRHEASDFPCRVAKLPKNKNRNRYRDVSPFDHSRIKLHQEDNDYINASLIKMEEAQRSYILTQGPLPNTCGHFWEMVWEQKSRGVVMLNRVMEKGSLKCAQYWPQKEEKEMIFEDTNLKLTLISEDIKSYYTVRQLELENLTTQETREILHFHYTTWPDFGVPESPASFLNFLFKVRESGSLSPEHGPVVVHSSAGIGRSGTFCLADTCLLLMDKRKDPSSVDIKKVLLEMRKFRMGLIQTADQLRFSYLAVIEGAKFIMGDSSVQDQWKELSHEDLEPPPEHIPPPPRPPKRILEPHNGKCREFFPNHQWVKEETQEDKDCPIKEEKGSPLNAAPYGIESMSQDTEVRSRVVGGSLRGAQAASPAKGEPSLPEKDEDHALSYWKPFLVNMCVATVLTAGAYLCYRFLFNSNT
As usually defined, the Kd is the concentration at which binding is half-saturated. In the case of B1, the phosphatase activity entry in series [1] is “no measurable activities”. Moreover, the “shape of ITC titration curve” value in series [2] is reported as “displayed two peaks”. In series [3] (F2Pmp peptide, previously determined (24)), the “affinity compared with wild-type enzyme” value is listed as “same affinity as the wild-type enzyme”. The Kd in series [3] (ITC, 25° C. and pH 7.0, data from (24)) was 190 ± 30 nM.
